# Read-outs that look alike come from different tables or passages of the source. *1 amine or outer side, *2 acyl side, *3 side chain or, on linkers, in order; H or OH if unused. Where a SMILES comes first, the peptide text is derived from it. Bridges are numbered along the chain shown (N, C = ends). [ ]: non-standard residue; d: D form. The star is where a group is joined. TATA = O=C(CC[*:1])N1CN(C(=O)CC[*:2])CN(C(=O)CC[*:3])C1; NOTA = O=C(O)CN1CCN(CC(=O)O)CCN(CC(=O)*)CC1; Hyp = O=C(O)[C@@H]1C[C@@H](O)CN1; hArg = N=C(N)NCCCC[C@H](N)C(=O)O; Pen = CC(C)(S)[C@H](N)C(=O)O; βAla = NCCC(=O)O; Sar = CNCC(=O)O
# What was measured:
# [1] = test system: PC-3 tumor-bearing mice; conditions: 4 h, dissected tissue uptake ratio;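 also: dissected tissues were weighed and their radioactivity counted, uptake given as percent of administered dose per gram, tissue ratios derived from these values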
# Procedure: In vivo radiobiological distribution assay: mice in the PET/CT imaging group were sacrificed immediately after the end of 4 h imaging, and mice in the inhibition group were sacrificed after 1 h imaging. Tissue samples of tumor, blood, heart, lung, liver, spleen, kidney, stomach, intestine, bone, muscle, and brain were collected by dissection, weighed and their radioactive counts were recorded. The probe uptake value in each tissue and organ of each experimental animal is expressed as radioactivity per gram of tissue as a percentage of the dose administered (% ID/g).
# [2] = in vivo; conditions: nude, mouse, iv, 11.1 MBq, total radioactivity
# Procedure: The tissue distribution characteristics of the compounds in PC-3 tumor-bearing mice were studied by using the PC-3 tumor-bearing mice model, small animal PET/CT scans were performed at different time points after a single intravenous administration of the compounds, tumors and other regions of interest were delineated to obtain radioactive uptake values.
# Tumor cells in the logarithmic growth phase were used for in vivo tumor inoculation. PC-3 cells were suspended in saline at a density of 5×10^6/mL, and a total of 15 nude mice were inoculated under the right flank at 0.1 mL per inoculation point. Imaging and biodistribution experiments were performed when tumors grew to 300-600 mm^3 (tumor volume measurement method: the long diameter and short diameter of the tumor were measured, and its volume calculation formula was: volume=0.5× major diameter× minor diameter^2). The drug was distributed according to the animal dose on the drug distribution table, and a certain volume of compound diluent was absorbed by a 1 mL insulin syringe, and the initial radioactive dose and initial dosimetry time were recorded. The injection time, residual radioactivity dose, and residual dose determination time were recorded after tail vein injection in tumor-bearing mice. […] PET/CT scans of animals were performed at different time points after administration. During the scanning process, the animals continued to inhale 1-2% isoflurane to maintain the anesthetic effect, and the scanning time was recorded. […] After the completion of PET/CT scanning, the images were reconstructed and the images and data were processed with the software of the device. The tumor, heart (including contents), kidney, intestine, and muscle were delineated as regions of interest. The percentage injection dose rate per gram of tissue in the area of interest (% ID/g) was obtained. The data of biological distribution was expressed as the percentage of radioactive count per gram of tissue or organ to the total dose (radioactive count) (% ID/g).
# Data for each sampling point were expressed as the mean standard deviation (mean SD) of 3 tumor-bearing mice.
compound,measurement,setting,value
CC(C)C[C@@H]1NC(=O)[C@@H]2CSCCC(=O)N3CN(CN(C3)C(=O)CCSC(C)(C)[C@@H](C(N)=O)NC(=O)[C@H](CCCCNC(=N)N)NC(=O)[C@H](Cc3c[nH]c4ccccc34)NC(=O)[C@@H](CC(=O)O)NC(=O)[C@@H]3CCCN3C(=O)[C@H](Cc3c[nH]cn3)NC1=O)C(=O)CCSC[C@H](NC(=O)[C@@H]1CC(=O)NCCCC[C@H](NC(=O)CN(C)C(=O)CN(C)C(=O)CN(C)C(=O)CN(C)C(=O)CN(C)C(=O)CN(C)C(=O)CN(C)C(=O)CN(C)C(=O)CN(C)C(=O)CN(C)C(=O)CCNC(=O)CN3CCN(CC(=O)O)CCN(CC(=O)O)CC3)C(=O)N[C@@H](CCCCNC(=N)N)C(=O)N1)C(=O)N1C[C@H](O)C[C@H]1C(=O)N[C@@H](CC(C)C)C(=O)N[C@@H](C(C)C)C(=O)N[C@@H](CC(N)=O)C(=O)N1CCC[C@H]1C(=O)N[C@@H](CC(C)C)C(=O)N2 [Example 3] ({NOTA-βAla}-[Sar][Sar][Sar][Sar][Sar][Sar][Sar][Sar][Sar][Sar]K[hArg]DC[Hyp]LVNPLCLHP[dD]W[hArg][Pen]-NH2; lactam 11-13; linker 14-21-28 via TATA),Tumor/blood,[1]; mouse S1,24.89
same,Tumor/bone,[1]; mouse S1,4.39
same,Tumor/brain,[1]; mouse S1,44.40
same,Tumor/heart,[1]; mouse S1,16.45
same,Tumor/intestine,[1]; mouse S1,12.02
same,Tumor/kidney,[1]; mouse S1,0.08
same,Tumor/liver,[1]; mouse S1,7.63
same,Tumor/lung,[1]; mouse S1,10.25
same,Tumor/muscle,[1]; mouse S1,11.01
same,Tumor/spleen,[1]; mouse S1,7.58
same,Tumor/stomach,[1]; mouse S1,22.84
same,Tumor/blood,[1]; mouse S2,3.88
same,Tumor/bone,[1]; mouse S2,1.30
same,Tumor/brain,[1]; mouse S2,40.18
same,Tumor/heart,[1]; mouse S2,7.47
same,Tumor/intestine,[1]; mouse S2,7.64
same,Tumor/kidney,[1]; mouse S2,0.04
same,Tumor/liver,[1]; mouse S2,4.34
same,Tumor/lung,[1]; mouse S2,4.78
same,Tumor/muscle,[1]; mouse S2,2.89
same,Tumor/spleen,[1]; mouse S2,4.03
same,Tumor/stomach,[1]; mouse S2,14.71
same,Tumor/blood,[1]; mouse S3,36.90
same,Tumor/bone,[1]; mouse S3,7.02
same,Tumor/brain,[1]; mouse S3,91.90
same,Tumor/heart,[1]; mouse S3,30.12
same,Tumor/intestine,[1]; mouse S3,27.31
same,Tumor/kidney,[1]; mouse S3,0.10
same,Tumor/liver,[1]; mouse S3,8.30
same,Tumor/lung,[1]; mouse S3,19.01
same,Tumor/muscle,[1]; mouse S3,19.97
same,Tumor/spleen,[1]; mouse S3,10.00
same,Tumor/stomach,[1]; mouse S3,34.54
same,tissue uptake at 2 min,[2]; heart (including contents),3.35 ± 0.35 %ID/g
same,tissue uptake at 5 min,[2]; heart (including contents),2.95 ± 0.63 %ID/g
same,tissue uptake at 8 min,[2]; heart (including contents),2.59 ± 0.67 %ID/g
same,tissue uptake at 11 min,[2]; heart (including contents),2.18 ± 0.51 %ID/g
same,tissue uptake at 14 min,[2]; heart (including contents),1.86 ± 0.41 %ID/g
same,tissue uptake at 17 min,[2]; heart (including contents),1.65 ± 0.38 %ID/g
same,tissue uptake at 20 min,[2]; heart (including contents),1.51 ± 0.36 %ID/g
same,tissue uptake at 23 min,[2]; heart (including contents),1.41 ± 0.31 %ID/g
same,tissue uptake at 26 min,[2]; heart (including contents),1.28 ± 0.3 %ID/g
same,tissue uptake at 29 min,[2]; heart (including contents),1.18 ± 0.24 %ID/g
same,tissue uptake at 0.5 h,[2]; heart (including contents),1.21 ± 0.3 %ID/g
same,tissue uptake at 1 h,[2]; heart (including contents),0.65 ± 0.25 %ID/g
same,tissue uptake at 2 h,[2]; heart (including contents),0.15 ± 0.06 %ID/g
same,tissue uptake at 4 h,[2]; heart (including contents),0.06 ± 0.02 %ID/g
same,tissue uptake at 2 min,[2]; kidney,15 ± 0.64 %ID/g
same,tissue uptake at 5 min,[2]; kidney,14.6 ± 2.02 %ID/g
same,tissue uptake at 8 min,[2]; kidney,14.9 ± 2.94 %ID/g
same,tissue uptake at 11 min,[2]; kidney,15.2 ± 2.41 %ID/g
same,tissue uptake at 14 min,[2]; kidney,15.1 ± 2.42 %ID/g
same,tissue uptake at 17 min,[2]; kidney,14.4 ± 2.34 %ID/g
same,tissue uptake at 20 min,[2]; kidney,14.4 ± 2.61 %ID/g
same,tissue uptake at 23 min,[2]; kidney,13.9 ± 2.02 %ID/g
same,tissue uptake at 26 min,[2]; kidney,12.5 ± 1.35 %ID/g
same,tissue uptake at 29 min,[2]; kidney,11.5 ± 0.94 %ID/g
same,tissue uptake at 0.5 h,[2]; kidney,11.6 ± 1.26 %ID/g
same,tissue uptake at 1 h,[2]; kidney,9.68 ± 0.18 %ID/g
same,tissue uptake at 2 h,[2]; kidney,8.82 ± 0.68 %ID/g
same,tissue uptake at 4 h,[2]; kidney,8.03 ± 0.35 %ID/g
same,tissue uptake at 2 min,[2]; liver,2.62 ± 0.25 %ID/g
same,tissue uptake at 5 min,[2]; liver,2.22 ± 0.41 %ID/g
same,tissue uptake at 8 min,[2]; liver,1.94 ± 0.35 %ID/g
same,tissue uptake at 11 min,[2]; liver,1.6 ± 0.23 %ID/g
same,tissue uptake at 14 min,[2]; liver,1.44 ± 0.23 %ID/g
same,tissue uptake at 17 min,[2]; liver,1.23 ± 0.15 %ID/g
same,tissue uptake at 20 min,[2]; liver,1.14 ± 0.14 %ID/g
same,tissue uptake at 23 min,[2]; liver,1.07 ± 0.14 %ID/g
same,tissue uptake at 26 min,[2]; liver,0.97 ± 0.16 %ID/g
same,tissue uptake at 29 min,[2]; liver,0.91 ± 0.1 %ID/g
same,tissue uptake at 0.5 h,[2]; liver,0.92 ± 0.07 %ID/g
same,tissue uptake at 1 h,[2]; liver,0.59 ± 0.21 %ID/g
same,tissue uptake at 2 h,[2]; liver,0.22 ± 0.04 %ID/g
same,tissue uptake at 4 h,[2]; liver,0.13 ± 0.05 %ID/g
same,tissue uptake at 2 min,[2]; muscle,1.06 ± 0.1 %ID/g
same,tissue uptake at 5 min,[2]; muscle,1.02 ± 0.18 %ID/g
same,tissue uptake at 8 min,[2]; muscle,0.97 ± 0.16 %ID/g
same,tissue uptake at 11 min,[2]; muscle,0.91 ± 0.19 %ID/g
same,tissue uptake at 14 min,[2]; muscle,0.82 ± 0.12 %ID/g
same,tissue uptake at 17 min,[2]; muscle,0.74 ± 0.13 %ID/g
same,tissue uptake at 20 min,[2]; muscle,0.69 ± 0.11 %ID/g
same,tissue uptake at 23 min,[2]; muscle,0.66 ± 0.14 %ID/g
same,tissue uptake at 26 min,[2]; muscle,0.67 ± 0.16 %ID/g
same,tissue uptake at 29 min,[2]; muscle,0.56 ± 0.11 %ID/g
same,tissue uptake at 0.5 h,[2]; muscle,0.55 ± 0.15 %ID/g
same,tissue uptake at 1 h,[2]; muscle,0.26 ± 0.05 %ID/g

# From patent publication US20240366811A1, “RA[…] P[…] USES THEREOF” (TIANJIN CONJUSTAR BIOLOGICS CO., LTD., priority 2023, published 2024)
